Laboratory results: patent US20140073768A1

molecular target: extracellular region of human V158 FcγRIIIa, C-terminal 6xHis-tag and GST-tag (human) (UniProt P08637); assay: SPR

Substance | Fold WT [fold]
alemtuzumab S304T (antibody) | 12.8
alemtuzumab E272R (antibody) | 1.38
alemtuzumab K246Y (antibody) | 7.07
alemtuzumab S267E (antibody) | 2.62
alemtuzumab E258Y (antibody) | 1.77
alemtuzumab E283L (antibody) | 2.56
alemtuzumab T260H (antibody) | 1.86
alemtuzumab E258H (antibody) | 5.5
alemtuzumab V284E (antibody) | 1.51
alemtuzumab E272H (antibody) | 384
alemtuzumab R255Y (antibody) | 1.41
alemtuzumab E283H (antibody) | 2.31
alemtuzumab K246H (antibody) | 22.4
alemtuzumab H268D (antibody) | 5.66

molecular target: FcγRIIIa on human PBMCs expressing heterozygous V158/F158 FcγRIIIa (human) (UniProt P08637); assay: cell-based or functional assay

Substance | ADCC EC50, DoHH-2 targets, PBMCs [ng/mL] | ADCC log(EC50), DoHH-2 targets, PBMCs
alemtuzumab V264I/I332E (antibody) | 4 | 0.6
alemtuzumab S239D/I332E (antibody) | 3 | 0.49

molecular target: extracellular region of human V158 FcγRIIIa, C-terminal 6xHis-tag and GST-tag (human) (UniProt P08637); assay: SPR, receptor immobilized, antibody flowed over

Substance | Kd [nM]
alemtuzumab, wild type (antibody) | 68

molecular target: extracellular region of human F158 FcγRIIIa, C-terminal 6xHis-tag and GST-tag (human) (UniProt P08637); assay: SPR, receptor immobilized, antibody flowed over

Substance | Kd [nM]
alemtuzumab, wild type (antibody) | 730
